Data from patent US6866997, “Nucleic acid binding proteins” (Gendaq Limited).

Target: Zif268 DNA-binding domain (UniProt P08046 P08046:333-421)
Test: apparent; text states optimised peptide Kd equals that of wild-type Zif268; curve only in FIG. 7

B1: Zif268 consensus site (dsDNA)
DNA 1: GCGTGGGCG
DNA 2: CGCCCACGC
Binder B1 has a Kd of 3 nM.
